Measurements taken from patent US20160362464A1.

Key:
[1] = biological target: CFP-Gβ1 with untagged Gγ2; assay: FRET at the plasma membrane of control HeLa cells, before Wnt5a stimulation (FIG. 2J, L)
[2] = biological target: CFP-Gβ1 with untagged Gγ2; assay: FRET at the plasma membrane of control HeLa cells, within 5 min after Wnt5a stimulation (FIG. 2J, L)
FZD7-CFP [3] = assay: FRET at the plasma membrane of starved HEK293 cells; printed: No such interaction was observed in starved cells (FIG. 4H, I)
FZD7-CFP [4] = assay: FRET at the plasma membrane of HEK293 cells within 5 min after Wnt5a stimulation (FIG. 4H, I)

CFP-Gβ1 with untagged Gγ2, sequence (P62873 2-340, chain 1 of 2): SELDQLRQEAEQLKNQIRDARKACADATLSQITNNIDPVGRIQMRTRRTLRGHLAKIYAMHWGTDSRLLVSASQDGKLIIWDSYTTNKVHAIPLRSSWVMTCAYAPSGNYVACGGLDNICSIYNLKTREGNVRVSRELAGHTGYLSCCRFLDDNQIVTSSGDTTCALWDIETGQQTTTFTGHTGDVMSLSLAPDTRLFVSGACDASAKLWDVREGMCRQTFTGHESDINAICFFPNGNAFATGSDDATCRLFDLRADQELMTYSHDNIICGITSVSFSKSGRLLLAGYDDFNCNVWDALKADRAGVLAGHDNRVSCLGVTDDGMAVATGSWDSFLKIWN
CFP-Gβ1 with untagged Gγ2, sequence (P59768 2-68, chain 2 of 2, further chain): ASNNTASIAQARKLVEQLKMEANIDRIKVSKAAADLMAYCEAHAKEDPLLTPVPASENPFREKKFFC
Gαi1-YFP (internally tagged), sequence (P10824 2-354): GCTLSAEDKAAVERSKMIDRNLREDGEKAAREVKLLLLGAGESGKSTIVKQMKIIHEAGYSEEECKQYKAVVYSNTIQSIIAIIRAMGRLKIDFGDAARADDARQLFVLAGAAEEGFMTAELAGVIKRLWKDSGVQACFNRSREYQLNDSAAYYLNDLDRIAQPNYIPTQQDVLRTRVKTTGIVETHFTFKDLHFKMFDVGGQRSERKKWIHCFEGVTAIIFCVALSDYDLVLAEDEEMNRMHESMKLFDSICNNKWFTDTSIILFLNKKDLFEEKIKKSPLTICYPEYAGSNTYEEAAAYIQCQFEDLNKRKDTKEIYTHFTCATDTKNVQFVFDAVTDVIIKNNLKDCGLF

| FRET efficiency [1] | FRET efficiency [2] | FRET efficiency (FZD7-CFP [3]) | FRET efficiency (FZD7-CFP [4]) | Substance |
| --- | --- | --- | --- | --- |
| 0.36 | 0.17 |  |  | Gαi1-YFP (internally tagged) |
|  |  | 0.04 | 0.25 | Gαi3-YFP (internally tagged) |
